Experimental findings from the DeepSol protein solubility set are described below.

The nature of this data set: soluble on expression in E. coli; label from the status in PepcDB or PDB records.
As for “MRQRTIVCPLIQNDGCYLLCKMADNRGVFPGQWALSGGGVEPGERIEEALRREIREELGEQLILSDITPWTFRDDIRIKTYADGRQEEIYMIYLIFDCVSANRDICINDEFQDYAWVKPEELALYDLNVATRHTLALKGLL”, the “soluble on expression in E. coli” value is given as “not soluble”.

Consider “MRQVTIPLIQSKSMFCVIYRSSKRDQTYLYVEKKDDFSRVPEALMKGFGQPQLAMMLPLDGRKKLVNAELEKVKQALSEQGYYLQLPPPPEDLLKQHLSSVGQNTSPADR”, for which the “soluble on expression in E. coli” value was “not soluble”.

As for “MRRAELAGLKTMAWVPAESAVEELMPRLLPVEPCDLTEGFDPSVPPRTPQEYLRRVQIEAAQCPDVVVAQIDPKKLKRKQSVNISLSGCQPAPEGYSPTLQWQQQQVAQFSTVRQNVNKHRSHWKSQQLDSNVTMPKSEDEEGWKKFCLGEKLCADGAVGPATNESPGIDYVQIGFPPLLSIVSRMNQATVTSVLEYLSNWFGERDFTPELGRWLYALLACLEKPLLPEAHSLIRQLARRCSEVRLLVDSKDDERVPALNLLICLVSRYFDQRDLADEPSLEHHHHHH”, the “soluble on expression in E. coli” value was “soluble”.

On to “MRRIDMRSWIQNTKKLLPDLLPVMQTRMQILQYIRLMQPIGRRNLSASLGMTERVLRSEVQVLKEQNLVHVASSGMTLTEEGTALVLALEDFMKEISGLKVLEKQLKETLDLDEVFVVPGDSDESPWVKLEMGRACVTCIKDRLTANNIVAVAGGTTLAAAADMMQLDCKDLHMLFVPARGGIGEGVELEANTICAKMAQNTMSNYRLLYVPDHVSSEAYASIVTEPSVKEVLELIRSSNIVIHGIGDALTMARRRSTSEADWLKIQASEAVGEAFGYYFNEEGNVVHKVRTVGMQLEDLQNVSHVVAVAGGSSKAKAIQAVIKQGHTSILITDEGAAKQLTKGFTL”, for which the “soluble on expression in E. coli” value is reported as “not soluble”.

In the case of “MRRTRRPRFVLMNKMDDLNLHYRFLNWRRRIREIREVRAFRYQERFKHILVDGDTLSYHGNSGEVGCYVASRPLTKDSNYFEVSIVDSGVRGTIAVGLVPQYYSLDHQPGWLPDSVAYHADDGKLYNGRAKGRQFGSKCNSGDRIGCGIEPVSFDVQTAQIFFTKNGKRVGSTIMPMSPDGLFPAVGMHSLGEEVRLHLNAELGREDDSVMMVDSYEDEWGRLHDVRVCGTLLEYLGKGKSIVDVGLAQARHPLSTRSHYFEVEIVDPGEKCYIALGLARKDYPKNRHPGWSRGSVAYHADDGKIFHGSGVGDPFGPRCYKGDIMGCGIMFPRDYILDSEGDSDDSCDTVILSPTARAVRNVRNVMYLHQEGEEEEEEEEEEEDGEEIEPEHEGRKVVVFFTRNGKIIGKKDAVVPSGGFFPTIGMLSCGEKVKVDLHPLSG”, the “soluble on expression in E. coli” value is on record as “soluble”.

Consider “MRSLLLLALVSASAYASFDKIKDSIQNPLARGFGDDIAWVKWEDAIETALDTDKPIFLLIHKSWCHACKALKKTFQQSNAKKAFKKLSEHFVMVNTEDDDEPFEEEYRPDGKYIPRLLFLDKNGDLLQEFKNKKAEYKNYAYYYSSPADILNSMKDVLKHFGVDIPEAKRGDKLKPKKPEGKKKEL”, for which the “soluble on expression in E. coli” value is “not soluble”.

Regarding “MRSMKVFISIGVVLSVVNCIFFDHGDSSDGSYSDSSGEGRGHHHKHGPRPPRPNRPPRPPPATPPPTTPAPSCPGGWSLIHRRRGPWCIQVFNGAAGLEGSNNACRAQGAVLSSVENAQERETIARLGLEKMLPTGWKYGTIRVGLRKNSQGAPWYNTDGSTDANNLEGVLWSPAEPRNGNWGGVQLNCATMWLWGGIFEGGRIHGQFFTNICLANNPNDRYRGYVCGKPA”, the “soluble on expression in E. coli” value is reported as “not soluble”.

As for “MRSSAKQEELVKAFKALLKEEKFSSQGEIVAALQEQGFDNINQSKVSRMLTKFGAVRTRNAKMEMVYCLPAELGVPTT”, the “soluble on expression in E. coli” value was “soluble”.

On to “MRSYAIGDIHGHLSLLQEIHGRIAADRARTGDDEAPVVHIGDLVDRGPDSRGVVEYLRQGIEQGENWVVLKGNHDRMFAGFLRDPAHQDPGLRGDLSWLHPRLGGGPTLESYGVAHAADRPVAIVHREAVALVPAEHVAFIEALPAVYRRDEALFVHAGIRPGVPLAEQIEDDLVWIREPFLSDPRDHGMLVVHGHTAIDAVTHYGNRLNLDSGAAYGGPLSAVVIEGRSVWQLGPEGRRPIALEHHHHHH”, for which the “soluble on expression in E. coli” value is “not soluble”.

As to “MRTFDDMLSKQLQDEEFKKEYDAIQPEMDVIRAIVDARTSQNMTQKELAERTGINQADISKLENGTRNPSVNLLKRLADAEMVLVRGSKDNVKPTQND”, the “soluble on expression in E. coli” value was “not soluble”.

For “MRTPLSSVSPQLVQRFHELGFTPSSIRNFLGRPGFAAISRGEPASVLYAMRENEDSDFYPLIATFILHRPVAAEALHRVLGGSLTDQLTETGVLEIVDASKAYLTAKIDIRWLELEDDLFWVFSDTDASMIADHVPGKDHVLGVGAASLSLLATTPRSPVNSVLDLGTGSGVQALGQLRHARSVTATDVHPRALDFAEATFAGAHFDVEILDGSWFEPIKNRKFDRIVANPPFVVGPPEIEHVYRDSGLDLDGATETVVRGAVDHLHSNGTAHLLGSWVHKNGESVASRVAEWIPSHGVIAWFLQRDTVDPIQYVNTWLRDESIDPRSEIGFKRTLSWLDHFSRAKVEAVGFGYVAIQRVDDSIPSEVYFEELTHQVDDYLGDEIEEFFVRVDWLREKNRDGIAQSQFYLRPGVAKESVSVTDIDSGMGFTHLKYRITRTEGPRWSHEVDEHIVSVIAGLHPEGLTLEDVATLYAVSNGLDDESFVDAIIDPVVALVRHGILLPAEITKGW”, the “soluble on expression in E. coli” value was “soluble”.

Turning to “MRTRSQVWAQKAYEKVREAAKGEGRGEYRDMALKLPVLVRQAGLSQALAFVDSRGKEAHKALGNDLAQVLGYRDLRELAEAAREAELLQYLRLTREVLAAAEWFKRFAQALIEE”, the “soluble on expression in E. coli” value is “soluble”.

Take “MRVCVIGAGLSGLAMGHALKERGISFVCLEKAPDVGGIWRQPGAGERGPGYQSLHLNTARQLTGYADFPMPSDYPLYPRHDQVAAYLRSFAEWAGLLDHVELRTEVLSVRQDSDGSWTVVSRDADGAQSARRFEQVVVASGHHTDPALPDPLPAGADSFAGTILHSLDYRDGGDFAGRRVVVVGLGASAVDIAADLSRHAERTLLSVRRGLHIVPKQVFGMSLDEIAEAPWWNEMPFAERRRWVEQALLVARGRLSDYGLPEPDHPILSSATTLSDEILSRIRHGAVTPKPAIASFESDRVVFTDGSSEAADTVVYCTGFHMTFPFLPPGCPVAADGAVELYRRIVPADRPGLYFVGLVRPAGALTRLVEAQAQWVARLVDGAAALPGTEEMREEISTYLAGIVERYGRTRGASIQVDVSPYLAEFREPLPVLEHHHHHH”: the “soluble on expression in E. coli” value is on record as “soluble”.

On to “MRVELIYDKRNVGSLANATEIIRAELTKRVHRVFPDAEVNVKAMHANGINTNASKQEKSVLNRLVEEMFDEADEWLNNEF”, for which the “soluble on expression in E. coli” value is “not soluble”.

In the case of “MRVHEPNIIFEDDKHKFIWLGLDESENEKGILTNQYLIVHEGKGYLLDPGGYFVFERVYQNVTRFVKPENIVTILYSHQDPDVIGSLNLWVDLAPNATFYVSALWERFLPHLGAELKGRIVDIPDEGMSIDFIRAIPAHFMHSPGNFHYYDTYAKIYFSGDLGAAIFKDKWYLFVEDFESHIKLMEPFHRRYIASKKAIDIWLKKIEGLEINVIAPQHGAIFEGENAKKFIQWLRNLDKVGLDLME”, the “soluble on expression in E. coli” value is reported as “soluble”.

Turning to “MRVLHVCSELFPLLKTGGLADVIGALPAAQLAEGADVRIILPAFPDLRRGIPETVLVREIDTFAGRVALRYGHYRGIGIYLIDAPALYDRAGSPYHDASLYAYSDNYLRFALLGWMACELACGLDGYWRPEVVHAHDWHAGLTCAYLAARGRPARSVFTVHNLAYQGLFSADHLSELHLPAEFFQIYGLEFYGQISYLKAGLFFADHVTTVSPTYAKEITQPAFGYGMEGLLQALARQGRLTGILNGVDSDIWDPQSDTLLPTRYDAENLQAKAINKTHLQTAMGLQLAENKPIFAVVSRLTVQKGLDLVLEALPELLALGGQLVVLGSGDATLQEAFLAAAAEHSGQVGVQIGYHEAFSHRIIAGSDVILVPSRFEPCGLTQLYGLKYGTLPLVRHTGGLADTVVDCALENLADGSASGFVFNECEAQALVKAIRRAFVLWSRPKHWRHVQRHAMRLDFGWQLAAVDYLSLYRRL”, the “soluble on expression in E. coli” value is recorded as “not soluble”.

Consider “MRVLLIEKNSVLGGEIEKGLNVKGFMADVTESLEDGEYLMDIRNYDLVMVSDKNALSFVSRIKEKHSSIVVLVSSDNPTSEEEVHAFEQGADDYIAKPYRSIKALVARIEARLRFWGSNVIEIGDLTISPDEEKIIYKGREVEVKGKPFEVLTHLARHRDQIVSKEQLLDAIWEEPEMVTPNVIEVAINQIRQKMDKPLGISTVETVRRRGYRFCYPKPACEE”, for which the “soluble on expression in E. coli” value is recorded as “soluble”.

Consider “MRVLTKKTEEEIRRDFFGPVQEAACKPYLLDVDPRKSWCELSELRLSTLICEFKPIGINKHFHLIGIIERMGKVFDNENAQVEIFLSEENRVAFRNQQRDLLMGGRPERTSYPPKYLCRPSLEMIEDKLKKWFGLRFCEENESYPSEFNSVTDYELPEYIMAEVRELSDKRAERERNTDNGIVESEKKSTIPRRLTEEDENYDIQT”, for which the “soluble on expression in E. coli” value is listed as “not soluble”.

Take “MRVLVTGGAGFIGSSFVRYIVNTTDWEVLVYDKLTYAGRLENLHDVIDRIGFMRGDIADEEQFGRVLTEFEPDVVVNFAAETHVDRSINEPAPFMRTNIIGVFTILEAIRKRIDQIVLLHVSTDEVYGDLWNTGKEATESDPLNPSSPYSASKASGDLLIKAYGRTYGLKYRIVRPCNNYGPYQHVEKLIPRTIIRILHGKPPVIYGDGSQIRDWLYVEDTARAIHVVLEKGVDGEIYNVCGGMASTVKDIVVNILESMGKPRDYLVYGKSRPGEDRRYAMKCDKIRNLGWAPHVTLKEGLKITVKWYIENRWWWRPLLDKRYVLADHPW”: the “soluble on expression in E. coli” value is “soluble”.

On to “MRVNDVNLMRYIQQLSLERKAPTPGSFLFNTVSELAVQQKLRGQIEGYKTTLSQIYNGIGLLNTANAGLESISTALQRARELAVQASNATLTDVERSMIQKEYEEIMRGVKRIIQQTTYNEQRVLAGDVRNLVIQTGPNEGQNVTVNIPNLEETLSELFEVDLSTFEGAQRSLETIDQALENISQIRGNVGSWMNRLESSARSVMNSYTELFKTESLFEPSVAELLLESTKEDILRQTALTGILFRMENAGNVLKLLM”, for which the “soluble on expression in E. coli” value was “not soluble”.

As to “MRYDVVIIGGGLAGLTCGIRLAEQGKRCAIVSAGQNALHFSSGALDLLSHLPDGQPVSQPLDALDELARQAPHHPYSRMGAAAVAALLPQVEALLERSNISLLGNHQQNHWRMTPLGKFRACWLSPADGVTRGLADSHFGDNPLIAGIEGFLDFQSRIVAGTLQTQGIAARSDELKLPVLDRLRQNPSEFRAVNIARLLDRPENRSALVEELSLLANGNDAIIMPACLGLDSPEIVSELADALGKPVLLLPTLPPSVLGLRLHQALSQRFRQLGGMVMPGDRAVRASLSSQEIAVHSHHHRDIPLRAKHAVLASGSFFSNGLVTQFDRVTEPVFGLDVRFAEQREGWSQQDVFAPQPYMQFGAIVDEHLHPRIAGETVNNLYAIGAVLEGFDPIVQGCGAGVSLLSALHVAEQILKEGNPLEHHHHHH”, the “soluble on expression in E. coli” value is on record as “soluble”.

For the sequence “MRYERIKYILLFSLMHLVYSNSTFESNPEVRNKSNIYDLPPLLDVTSVNEETPIVKRPINERIENLEFDPRFEIDQAKLEISEDKLGSGFFGEVCYGLLSMRTSNTETDTLQKLSVAVKQSNDPTQENQEKMIEDETKLMCAIGRNPNILAIIGAVTANSGSARNLLIVEFVECGDLLKFLEEKKSIFKDELVYEKNGYLLPKSIRRKTYMFNENEDDVIEESLDSLCTSDLLSFSYQIAEGMEYLASIPCVHRDLALRNVLLNKNKTIRIADFGLARKYQVDGYYRITKGVGTPMPARWMAPEVMREGKCTEKSDVWSYGVSLYEMFSLGELPYSNVSNSDVFEHVVQGNQLPMPQYCHPKMYDRMKQFWNFDATFRPSFSKCVEFFEEHLSVSATNLLEQIQKTLKSEAERQSKLEDWIRRD”, the “soluble on expression in E. coli” value is “not soluble”.
